The values that follow come from patent US20090291088A1, “THERAPEUTIC COMBINATIONS OF ANTI-IGF-1R ANTIBODIES AND OTHER COMPOUNDS” (Biogen Idec MA Inc., priority 2008, published 2009).

Test [1] deals with murine IGF-1R(1-903)-Fc (mouse; human) (UniProt Q60751). In words: SPR, Fab over captured mIGF-1R-Fc, 3 hr dissociation. In general terms: In SPR one partner is held on a chip, and binding of the other changes the refractive index at the surface.
Test [2] shares this target. In words: SPR.
Test [3] addresses All other mutant IGF-1R constructs (SD001-SD019 other than SD015). Put plainly: SPR, Fab over captured mutant receptor-Fc.
In test [4] the target is murine IGF-1R(1-903)-Fc (mouse; human) (UniProt Q60751). Put plainly: SPR, Fab over captured mIGF-1R-Fc.
The target is the same in test [5]. In words: SPR, Fab over mIGF-1R-Fc captured by anti-Fc, apparent affinity.

B1: M13-C06 Fab (Fab, V domains shown)
VH: EVQLLESGGGLVQPGGSLRLSCAASGFTFSIYRMQWVRQAPGKGLEWVSGISPSGGTTWYADSVKGRFTISRDNSKNTLYLQMNSLRAEDTAVYYCARWSGGSGYAFDIWGQGTMVTVSS
VL: DIQMTQSPLSLSASVGDRVTITCQASRDIRNYLNWYQQKPGKAPKLLIYDASSLQTGVPSRFGGSGSGTDFSFTIGSLQPEDIATYYCQQFDSLPHTFGQGTKLEIK
For B1, in test [1], the koff was 4.2e-05 s⁻¹. For the same molecule, in test [2], the fold decrease in binding against human IGF-1R Fc was 100 fold. Moreover, the Kd in test [3] amounted to 1 nM; in test [5] it was 89.1 nM. In addition, in test [4], the kon came to 471 M⁻¹ s⁻¹.

B2: M14-C03 Fab (Fab, V domains shown)
VH: EVQLLESGGGLVQPGGSLRLSCAASGFTFSKYMMSWVRQAPGKGLEWVSYISPSGGLTWYADSVKGRFTISRDNSKNTLYLQMNSLRAEDTAVYYCARDGARGYGMDVWGQGTTVTVSS
VL: DIQMTQSPATLSLSPGERATLSCRASQSVSSYLAWYQQKPGQAPRLLIYDASNRATGIPARFSGSGSGTDFTLTISSLEPEDFAVYYCQQRSNWPPEVTFGPGTKVDIK
Regarding B2, in test [3], the Kd is 5 nM.

As a reminder, the koff is the rate constant with which the complex falls apart. One may read the kon as a measure of how fast the partners come together. A low value points to slow association.
